From the supplement of paper PMC10065799, “High-throughput profiling of sequence recognition by tyrosine kinases and SH2 domains using bacterial peptide display” (eLife, 2023)

Columns and labels:
[1] = system: AncSZ; experiment: phosphorylation enrichment, bacterial display (enrichment ratio); higher = better substrate or ligand; peptides without Tyr show the background
[2] = molecular target: EPHB1 (UniProt P54762); experiment: as above
[3] = molecular target: EPHB2 (UniProt P29323); experiment: as above
Chain of EPHB2 (P29323 whole entry, looked up): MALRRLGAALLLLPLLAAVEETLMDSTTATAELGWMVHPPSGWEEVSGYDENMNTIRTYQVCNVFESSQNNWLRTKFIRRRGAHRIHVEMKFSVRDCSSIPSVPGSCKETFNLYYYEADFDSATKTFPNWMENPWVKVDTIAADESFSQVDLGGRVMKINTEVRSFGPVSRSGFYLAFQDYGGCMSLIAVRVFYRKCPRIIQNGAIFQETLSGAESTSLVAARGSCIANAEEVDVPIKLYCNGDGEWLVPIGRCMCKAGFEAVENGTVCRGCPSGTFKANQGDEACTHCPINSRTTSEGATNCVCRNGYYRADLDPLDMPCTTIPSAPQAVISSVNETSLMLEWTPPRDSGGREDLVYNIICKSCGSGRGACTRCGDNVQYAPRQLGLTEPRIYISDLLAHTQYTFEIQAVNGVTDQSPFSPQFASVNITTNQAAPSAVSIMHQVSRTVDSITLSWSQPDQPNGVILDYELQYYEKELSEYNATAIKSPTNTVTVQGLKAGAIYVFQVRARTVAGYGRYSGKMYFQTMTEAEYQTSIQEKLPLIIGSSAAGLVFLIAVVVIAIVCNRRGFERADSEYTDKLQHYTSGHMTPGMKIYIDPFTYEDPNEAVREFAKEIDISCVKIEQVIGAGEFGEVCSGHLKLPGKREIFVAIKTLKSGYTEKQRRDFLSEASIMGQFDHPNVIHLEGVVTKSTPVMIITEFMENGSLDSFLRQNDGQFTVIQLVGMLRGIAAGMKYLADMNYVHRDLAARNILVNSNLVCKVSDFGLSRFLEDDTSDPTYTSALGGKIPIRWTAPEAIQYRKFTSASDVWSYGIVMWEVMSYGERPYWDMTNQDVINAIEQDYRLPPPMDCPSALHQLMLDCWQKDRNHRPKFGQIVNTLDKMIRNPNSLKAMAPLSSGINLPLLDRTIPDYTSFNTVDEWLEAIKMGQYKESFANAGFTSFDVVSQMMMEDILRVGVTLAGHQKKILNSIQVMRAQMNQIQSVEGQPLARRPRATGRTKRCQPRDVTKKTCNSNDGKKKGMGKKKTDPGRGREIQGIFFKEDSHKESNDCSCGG

[4] = molecular target: FGFR1 (UniProt P11362); experiment: as above
Chain of FGFR1 (P11362 whole entry, looked up): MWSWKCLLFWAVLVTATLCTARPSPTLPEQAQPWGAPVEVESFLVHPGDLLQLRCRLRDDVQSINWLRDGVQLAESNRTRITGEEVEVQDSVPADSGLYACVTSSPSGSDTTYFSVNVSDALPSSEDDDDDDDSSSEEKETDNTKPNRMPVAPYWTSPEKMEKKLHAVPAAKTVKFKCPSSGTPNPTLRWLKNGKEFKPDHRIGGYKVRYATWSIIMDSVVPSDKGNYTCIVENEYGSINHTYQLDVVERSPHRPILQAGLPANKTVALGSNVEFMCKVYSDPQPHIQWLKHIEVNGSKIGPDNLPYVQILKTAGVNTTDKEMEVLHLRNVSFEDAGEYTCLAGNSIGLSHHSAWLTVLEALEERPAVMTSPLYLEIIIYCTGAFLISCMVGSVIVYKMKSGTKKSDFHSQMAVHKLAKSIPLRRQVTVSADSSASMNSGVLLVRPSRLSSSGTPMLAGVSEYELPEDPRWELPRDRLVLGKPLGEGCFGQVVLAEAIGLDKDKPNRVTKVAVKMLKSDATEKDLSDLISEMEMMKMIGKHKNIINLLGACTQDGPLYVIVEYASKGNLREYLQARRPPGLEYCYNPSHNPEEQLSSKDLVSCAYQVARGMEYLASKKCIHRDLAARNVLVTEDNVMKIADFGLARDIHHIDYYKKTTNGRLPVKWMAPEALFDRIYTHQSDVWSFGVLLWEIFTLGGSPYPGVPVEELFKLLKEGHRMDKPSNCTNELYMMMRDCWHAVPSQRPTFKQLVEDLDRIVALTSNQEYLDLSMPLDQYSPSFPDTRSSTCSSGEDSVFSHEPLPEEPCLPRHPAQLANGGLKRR

[5] = molecular target: FGFR3 (UniProt P22607); experiment: as above
Chain of FGFR3 (P22607 whole entry, looked up): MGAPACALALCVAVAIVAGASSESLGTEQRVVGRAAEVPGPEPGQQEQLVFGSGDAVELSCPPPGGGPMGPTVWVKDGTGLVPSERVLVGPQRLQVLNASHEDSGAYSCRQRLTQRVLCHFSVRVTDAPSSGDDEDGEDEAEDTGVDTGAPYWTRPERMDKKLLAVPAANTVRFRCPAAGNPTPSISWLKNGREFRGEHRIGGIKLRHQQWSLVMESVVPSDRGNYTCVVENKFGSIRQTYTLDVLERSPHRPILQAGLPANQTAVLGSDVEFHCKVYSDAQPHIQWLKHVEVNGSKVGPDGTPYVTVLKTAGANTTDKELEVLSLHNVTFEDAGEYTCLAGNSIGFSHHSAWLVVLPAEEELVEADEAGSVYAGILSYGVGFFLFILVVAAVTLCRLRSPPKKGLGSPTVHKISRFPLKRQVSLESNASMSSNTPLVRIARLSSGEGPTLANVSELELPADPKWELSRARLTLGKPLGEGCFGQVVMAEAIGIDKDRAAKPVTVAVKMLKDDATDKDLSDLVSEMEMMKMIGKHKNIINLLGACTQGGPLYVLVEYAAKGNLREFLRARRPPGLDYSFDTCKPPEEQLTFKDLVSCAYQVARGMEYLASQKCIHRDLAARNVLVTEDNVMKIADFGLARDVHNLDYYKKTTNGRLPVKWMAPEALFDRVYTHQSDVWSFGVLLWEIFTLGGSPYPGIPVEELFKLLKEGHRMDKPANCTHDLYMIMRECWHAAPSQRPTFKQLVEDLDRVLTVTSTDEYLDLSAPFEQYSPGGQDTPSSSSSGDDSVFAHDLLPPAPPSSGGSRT

[6] = system: Fer (mouse); experiment: as above
[7] = molecular target: Fes (UniProt P07332); experiment: as above
[8] = molecular target: Fyn (UniProt P06241); experiment: as above
Chain of Fyn (P06241 whole entry, looked up): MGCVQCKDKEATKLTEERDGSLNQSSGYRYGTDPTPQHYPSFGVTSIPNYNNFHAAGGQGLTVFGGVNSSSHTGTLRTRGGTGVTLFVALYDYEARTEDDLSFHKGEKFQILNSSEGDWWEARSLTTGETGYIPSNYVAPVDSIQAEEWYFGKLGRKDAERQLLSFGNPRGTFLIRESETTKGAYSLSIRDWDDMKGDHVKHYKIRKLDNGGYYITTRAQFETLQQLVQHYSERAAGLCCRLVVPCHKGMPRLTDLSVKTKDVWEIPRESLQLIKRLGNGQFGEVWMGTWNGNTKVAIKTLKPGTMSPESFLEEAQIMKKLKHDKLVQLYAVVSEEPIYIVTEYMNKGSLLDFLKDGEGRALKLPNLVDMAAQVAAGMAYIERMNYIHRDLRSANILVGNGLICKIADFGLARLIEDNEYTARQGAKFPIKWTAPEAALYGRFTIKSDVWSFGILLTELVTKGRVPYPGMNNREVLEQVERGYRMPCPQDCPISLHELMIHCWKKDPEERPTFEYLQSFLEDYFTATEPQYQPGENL

[9] = molecular target: Hck (UniProt P08631); experiment: as above
Chain of Hck (P08631 whole entry, looked up): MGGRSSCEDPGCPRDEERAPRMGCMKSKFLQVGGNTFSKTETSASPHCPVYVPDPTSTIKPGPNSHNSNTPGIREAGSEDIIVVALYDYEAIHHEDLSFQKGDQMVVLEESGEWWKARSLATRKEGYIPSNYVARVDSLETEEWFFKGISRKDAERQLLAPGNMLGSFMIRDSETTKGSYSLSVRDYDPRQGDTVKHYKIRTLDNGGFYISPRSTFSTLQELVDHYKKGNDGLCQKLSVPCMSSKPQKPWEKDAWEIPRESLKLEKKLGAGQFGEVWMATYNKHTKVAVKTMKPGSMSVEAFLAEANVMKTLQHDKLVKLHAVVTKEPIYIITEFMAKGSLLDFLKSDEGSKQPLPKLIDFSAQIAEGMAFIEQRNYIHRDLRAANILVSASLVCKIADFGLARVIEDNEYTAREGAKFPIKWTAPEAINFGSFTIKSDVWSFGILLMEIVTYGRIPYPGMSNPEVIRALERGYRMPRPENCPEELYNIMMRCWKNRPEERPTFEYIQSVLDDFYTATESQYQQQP

[10] = molecular target: Jak2 (UniProt O60674); experiment: as above
[11] = molecular target: MERTK (UniProt Q12866); experiment: as above
Chain of MERTK (Q12866 whole entry, looked up): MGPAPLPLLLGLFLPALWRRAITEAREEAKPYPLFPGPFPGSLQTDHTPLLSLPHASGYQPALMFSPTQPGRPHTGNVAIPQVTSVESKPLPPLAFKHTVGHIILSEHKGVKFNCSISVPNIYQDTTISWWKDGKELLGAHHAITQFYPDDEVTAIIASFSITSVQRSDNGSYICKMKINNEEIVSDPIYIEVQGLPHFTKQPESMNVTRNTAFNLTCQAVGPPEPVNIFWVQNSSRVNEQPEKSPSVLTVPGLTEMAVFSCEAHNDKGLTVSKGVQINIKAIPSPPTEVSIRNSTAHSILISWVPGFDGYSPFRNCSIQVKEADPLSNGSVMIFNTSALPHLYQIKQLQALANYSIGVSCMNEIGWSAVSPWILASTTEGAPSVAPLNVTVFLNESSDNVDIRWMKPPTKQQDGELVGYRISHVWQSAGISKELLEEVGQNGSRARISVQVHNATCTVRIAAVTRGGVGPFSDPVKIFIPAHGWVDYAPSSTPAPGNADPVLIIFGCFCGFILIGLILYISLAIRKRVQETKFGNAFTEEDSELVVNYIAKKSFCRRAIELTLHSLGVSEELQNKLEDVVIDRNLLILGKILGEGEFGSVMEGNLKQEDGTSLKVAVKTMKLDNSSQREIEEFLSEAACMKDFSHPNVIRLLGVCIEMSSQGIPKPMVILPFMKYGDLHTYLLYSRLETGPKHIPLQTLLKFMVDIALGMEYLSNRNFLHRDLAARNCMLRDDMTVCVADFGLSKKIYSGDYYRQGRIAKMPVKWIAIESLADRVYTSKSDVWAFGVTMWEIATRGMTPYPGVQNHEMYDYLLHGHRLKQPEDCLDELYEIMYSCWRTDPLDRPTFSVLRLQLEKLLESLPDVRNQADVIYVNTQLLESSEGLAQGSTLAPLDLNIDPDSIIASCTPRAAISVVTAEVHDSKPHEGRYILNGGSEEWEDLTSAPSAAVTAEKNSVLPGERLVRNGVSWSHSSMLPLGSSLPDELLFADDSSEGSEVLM

[12] = system: c-Abl (mouse); experiment: as above
[13] = system: c-Src; experiment: as above
[14] = molecular target: Grb2 SH2 (UniProt P62993); experiment: SH2 binding enrichment of the phosphorylated peptide, bacterial display (enrichment ratio); higher = better substrate or ligand; peptides without Tyr show the background
[15] = molecular target: SHP2-C SH2; experiment: as above
[16] = molecular target: c-Src SH2; experiment: as above
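Throughout, for SH2 binding enrichment of the phosphorylated peptide, bacterial display: peptide library displayed on the E. coli surface as eCPX fusions, selected cells deep-sequenced, score is each peptide's frequency after selection divided by its frequency in the input.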
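Throughout, for phosphorylation enrichment, bacterial display: 11-residue human phosphosite peptides and single-mutation variants displayed on the E. coli surface, counted by deep sequencing, each peptide's frequency after selection divided by its frequency in the unselected input library; frequency after pTyr selection over input frequency; kinase dosed for 20-30% of maximal phosphorylation in three min.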

| Sequence | SH2 binding enrichment [14] | SH2 binding enrichment [15] | SH2 binding enrichment [16] | phosphorylation enrichment [1] | phosphorylation enrichment [2] | phosphorylation enrichment [3] | phosphorylation enrichment [4] | phosphorylation enrichment [5] | phosphorylation enrichment [6] | phosphorylation enrichment [7] | phosphorylation enrichment [8] | phosphorylation enrichment [9] | phosphorylation enrichment [10] | phosphorylation enrichment [11] | phosphorylation enrichment [12] | phosphorylation enrichment [13] |
| --- | --- | --- | --- | --- | --- | --- | --- | --- | --- | --- | --- | --- | --- | --- | --- | --- |
| PVDVAYRHGYF [PLEC_Y2967_R2969H] | 1.21 | 0.701 | 0.611 | 1.71 | 0.752 | 1.48 | 0.863 | 1.1 | 0.543 | 1.05 | 0.536 | 0.695 | 1.9 | 0.687 | 1.4 | 0.905 |
| PYRQWYESHYA [RPS8_Y113] | 1.33 | 1.09 | 1.59 | 1.61 | 2.82 | 2.27 | 1.36 | 1.1 | 10.9 | 1.69 | 1.09 | 1.3 | 1.37 | 1.86 | 1.19 | 2.35 |
| QADVIYVNTQL [MERTK_Y872] | 1.26 | 0.699 | 0.608 | 1.61 | 2.52 | 0.962 | 2.29 | 1.4 | 8.63 | 1.43 | 2.13 | 2.19 | 1.18 | 0.925 | 1 | 1.27 |
| QAKRKYQEASK [FES_Y156] | 1.16 | 0.701 | 0.602 | 0.46 | 0.342 | 0.459 | 0.495 | 0.441 | 0.481 | 0.772 | 0.544 | 0.489 | 0.429 | 0.418 | 0.491 | 0.488 |
| QAPPVYLDVLG [NTRK1_Y791] | 1.03 | 0.765 | 0.723 | 1.17 | 4.2 | 1.34 | 2.33 | 1.49 | 0.69 | 1.45 | 1.01 | 1.02 | 1.16 | 0.901 | 0.954 | 0.727 |
| QEGPEYWDRET [HLA-A_Y83_Q86R] | 0.787 | 0.539 | 0.533 | 2.03 | 1.16 | 0.946 | 0.85 | 1.08 | 0.92 | 2.45 | 0.692 | 0.871 | 2.21 | 0.924 | 1.44 | 0.814 |
| QEIATYRPLLE [KRT14_Y415_R417P] | 0.647 | 0.64 | 0.422 | 1.02 | 0.791 | 0.65 | 0.78 | 0.834 | 0.643 | 1.24 | 0.961 | 0.674 | 1.04 | 0.504 | 0.922 | 0.705 |
| QEIATYRRLRE [KRT17_Y384_L388R] | 0.75 | 0.478 | 0.441 | 0.734 | 0.64 | 0.557 | 0.77 | 0.933 | 0.508 | 0.936 | 0.61 | 0.779 | 0.558 | 0.798 | 0.597 | 0.537 |
| QELRRYLKSSV [MICA_Y194_G198S] | 0.732 | 0.502 | 0.426 | 0.543 | 0.322 | 0.349 | 0.44 | 0.483 | 0.292 | 0.6 | 0.36 | 0.653 | 0.457 | 0.213 | 0.349 | 0.298 |
| QEMMEYRHQIQ [DES_Y324] | 1.22 | 0.579 | 0.485 | 2.04 | 0.93 | 0.833 | 0.677 | 1.04 | 0.303 | 2.13 | 0.559 | 0.902 | 2.03 | 0.762 | 1.86 | 1.12 |
| QFFQSYFNNNF [ZNF236_Y644] | 1.57 | 1.02 | 0.755 | 0.766 | 0.981 | 0.29 | 0.643 | 0.841 | 0.37 | 1.14 | 0.682 | 0.532 | 1.6 | 0.627 | 0.455 | 0.549 |
| QFKDKYLAKHN [CASK_Y712_YF] | 0.83 | 1.3 | 0.914 | 0.519 | 0.53 | 0.268 | 0.383 | 0.298 | 0.433 | 0.467 | 0.266 | 0.384 | 0.788 | 0.403 | 0.35 | 0.34 |
| QFPDVYAREEV [CRX_Y67_YF] | 0.854 | 0.776 | 0.658 | 1.06 | 0.514 | 0.489 | 0.649 | 0.693 | 0.879 | 1.43 | 0.624 | 0.645 | 1.53 | 0.603 | 0.68 | 0.672 |
| QGCSIYKDYYR [PLA2G2D_Y82] | 1.02 | 0.813 | 0.738 | 1.29 | 1.68 | 0.734 | 1.27 | 1.57 | 0.724 | 1.47 | 3.56 | 2.92 | 1.08 | 0.67 | 0.731 | 4.85 |
| QGRQTYLPQPA [DDR2_Y813] | 0.627 | 0.44 | 0.553 | 0.752 | 0.527 | 0.473 | 0.552 | 0.485 | 0.408 | 0.821 | 0.495 | 0.713 | 0.778 | 0.433 | 0.844 | 0.477 |
| QLCVSYPGGFT [PROS1_Y259_N258S_YF] | 0.711 | 0.687 | 0.535 | 1.12 | 0.481 | 0.546 | 0.496 | 0.892 | 0.775 | 1.47 | 0.663 | 0.682 | 1.45 | 0.578 | 1.24 | 0.658 |
| QPSPSYDSSRG [TCF12_Y70] | 0.773 | 0.733 | 0.393 | 0.68 | 0.534 | 0.626 | 0.561 | 0.557 | 0.457 | 0.661 | 0.623 | 0.553 | 0.455 | 0.414 | 0.521 | 0.482 |
| QRALLYEDTLY [UNC13D_Y56_A59T] | 0.62 | 0.537 | 0.885 | 1.54 | 15.2 | 12.5 | 0.648 | 1.02 | 12.1 | 2.2 | 3.98 | 4.67 | 0.942 | 6 | 0.819 | 3.24 |
| QSVEPYTKQQL [STAT3_Y640] | 0.978 | 0.649 | 0.528 | 0.715 | 0.614 | 0.695 | 0.553 | 0.558 | 0.543 | 0.783 | 0.536 | 0.641 | 0.755 | 0.709 | 0.81 | 0.626 |
| QTLEAYIRWNK [SPAST_Y604] | 1.26 | 1.61 | 0.919 | 1.2 | 0.703 | 0.588 | 0.615 | 0.935 | 0.62 | 1.44 | 0.452 | 0.472 | 1.09 | 0.45 | 0.913 | 0.488 |

The next lines start with results.

| SH2 binding enrichment [14] | SH2 binding enrichment [15] | SH2 binding enrichment [16] | Sequence | phosphorylation enrichment [1] | phosphorylation enrichment [2] | phosphorylation enrichment [3] | phosphorylation enrichment [4] | phosphorylation enrichment [5] | phosphorylation enrichment [6] | phosphorylation enrichment [7] | phosphorylation enrichment [8] | phosphorylation enrichment [9] | phosphorylation enrichment [10] | phosphorylation enrichment [11] | phosphorylation enrichment [12] | phosphorylation enrichment [13] |
| --- | --- | --- | --- | --- | --- | --- | --- | --- | --- | --- | --- | --- | --- | --- | --- | --- |
| 0.834 | 0.613 | 0.524 | PVQAAYKKVVA [HBB_Y131_Q132K] | 0.645 | 0.545 | 0.278 | 0.534 | 0.485 | 0.226 | 0.762 | 0.506 | 0.479 | 0.486 | 0.578 | 0.73 | 0.687 |
| 0.641 | 0.764 | 0.623 | PVRIAYDRPRG [SUGP2_Y985] | 0.923 | 0.464 | 0.691 | 0.384 | 0.653 | 0.746 | 0.737 | 0.486 | 0.426 | 1.44 | 0.591 | 0.671 | 0.609 |
| 0.802 | 0.724 | 0.647 | PYIDSYEKDVA [PGM1_Y521_L516P] | 1.66 | 0.907 | 0.857 | 0.907 | 1.08 | 0.852 | 1.48 | 0.684 | 0.725 | 1.61 | 0.763 | 0.961 | 0.703 |
| 0.728 | 1.01 | 1.28 | PYYTSYPPSPD [GDAP2_Y491] | 1.38 | 3.43 | 5.06 | 4.8 | 3.57 | 0.676 | 1.03 | 5.09 | 2.39 | 3.58 | 9.55 | 1.67 | 6.44 |
| 0.795 | 0.455 | 0.483 | QAEELYFGKMG [YES1_Y159_W158L] | 2.15 | 0.861 | 0.837 | 1.49 | 1.55 | 0.747 | 1.55 | 3.61 | 5.82 | 1.14 | 1.87 | 2.25 | 3.55 |
| 0.637 | 0.579 | 0.485 | QDEHGYISLCF [HSPB1_Y133_R136L] | 2.22 | 1.56 | 1.22 | 1.48 | 2.09 | 1.08 | 3.71 | 1.05 | 1.17 | 3.37 | 1.36 | 2.42 | 1.16 |
| 0.79 | 0.78 | 1.29 | QDTSRYTVCNL [BIRC3_Y245_S248C] | 0.745 | 0.528 | 0.439 | 0.418 | 0.469 | 0.557 | 0.815 | 0.546 | 0.359 | 0.741 | 0.348 | 0.854 | 0.439 |
| 1.4 | 1.04 | 0.988 | QGLRLYRPHLA [BTK_Y617] | 1.16 | 0.515 | 0.697 | 0.501 | 0.76 | 0.542 | 1.12 | 0.461 | 0.437 | 1.15 | 0.382 | 0.775 | 0.438 |
| 0.664 | 0.982 | 0.445 | QMRLRYLAAEE [CEP120_Y884] | 1.11 | 0.741 | 0.643 | 0.931 | 0.874 | 0.563 | 1.41 | 0.845 | 0.776 | 1.3 | 0.423 | 0.916 | 0.647 |
| 0.784 | 0.842 | 0.538 | QMVGMYASFYM [AVPR2_Y124_S127F] | 1.35 | 2.49 | 1.92 | 0.45 | 1 | 3.65 | 1.65 | 7.85 | 5.46 | 1.79 | 4.41 | 3.61 | 6.92 |
| 0.775 | 0.604 | 0.562 | QQLQGYVPSNY [FRK_Y99_I100V] | 0.554 | 0.552 | 0.36 | 0.458 | 0.733 | 0.45 | 0.874 | 0.486 | 0.537 | 0.822 | 0.396 | 0.64 | 0.413 |
| 1.17 | 0.803 | 1.06 | QRRLVYYEGGA [RYR1_Y245] | 0.788 | 0.402 | 0.606 | 0.497 | 0.602 | 0.536 | 1.11 | 0.369 | 0.421 | 0.682 | 1.15 | 0.728 | 0.583 |
| 0.707 | 2.59 | 0.828 | QTENKYVSVSG [EIF2AK3_Y565_D566V] | 0.61 | 0.808 | 0.683 | 0.527 | 0.581 | 0.626 | 1.51 | 0.627 | 0.85 | 0.754 | 0.548 | 0.938 | 0.693 |
